This passage reports cAMP EC50 and cAMP Kb results from patent US20120135923A1, “Use of Melanocortins to Treat Dyslipidemia” (IPSEN PHARMA, S.A.S., priority 2009, published 2012).

What all share (assay): cell-based or functional assay
Assay [1] has as its target hMC5-R (human) (UniProt P33032).
In assay [2] the target is hMC4-R (human) (UniProt P32245).
The target in assay [3] is hMC1-R (human) (UniProt Q01726).
In assay [4] the target is hMC3-R (human) (UniProt P41968).

Bridge positions count the residues as written; N and C are the ends. Square brackets hold non-standard residues; d marks the D form. 1Nal = N[C@@H](Cc1cccc2ccccc12)C(=O)O; 2Nal = N[C@@H](Cc1ccc2ccccc2c1)C(=O)O; d2Nal = N[C@H](Cc1ccc2ccccc2c1)C(=O)O

Sequence of hMC4-R (human) (P32245 whole entry): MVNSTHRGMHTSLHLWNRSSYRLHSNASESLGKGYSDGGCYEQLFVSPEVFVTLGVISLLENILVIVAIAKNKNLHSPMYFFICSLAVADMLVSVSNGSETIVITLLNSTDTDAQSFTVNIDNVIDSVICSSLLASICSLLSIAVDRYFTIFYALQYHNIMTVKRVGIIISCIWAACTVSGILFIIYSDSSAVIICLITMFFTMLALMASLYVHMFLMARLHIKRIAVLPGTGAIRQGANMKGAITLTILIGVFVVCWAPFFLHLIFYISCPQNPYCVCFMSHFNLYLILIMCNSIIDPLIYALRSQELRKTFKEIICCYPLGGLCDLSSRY
Sequence of hMC5-R (human) (P33032 whole entry): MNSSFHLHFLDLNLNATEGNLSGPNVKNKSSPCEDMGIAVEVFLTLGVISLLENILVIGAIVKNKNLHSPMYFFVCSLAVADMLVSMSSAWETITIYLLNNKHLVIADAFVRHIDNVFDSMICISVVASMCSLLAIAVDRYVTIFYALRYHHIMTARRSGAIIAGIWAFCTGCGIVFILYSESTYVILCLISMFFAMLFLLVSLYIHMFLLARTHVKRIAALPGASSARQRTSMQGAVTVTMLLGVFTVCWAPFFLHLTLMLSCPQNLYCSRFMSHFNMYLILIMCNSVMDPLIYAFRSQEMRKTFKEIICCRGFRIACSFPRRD
Sequence of hMC1-R (human) (Q01726 whole entry): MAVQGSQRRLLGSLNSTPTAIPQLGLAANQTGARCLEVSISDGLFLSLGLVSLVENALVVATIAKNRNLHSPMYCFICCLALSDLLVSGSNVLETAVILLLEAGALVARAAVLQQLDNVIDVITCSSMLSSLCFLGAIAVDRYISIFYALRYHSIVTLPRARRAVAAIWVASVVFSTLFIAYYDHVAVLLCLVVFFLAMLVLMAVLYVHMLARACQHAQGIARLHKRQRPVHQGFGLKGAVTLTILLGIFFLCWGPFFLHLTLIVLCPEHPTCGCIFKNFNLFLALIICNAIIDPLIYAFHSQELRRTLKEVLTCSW
Sequence of hMC3-R (human) (P41968 whole entry): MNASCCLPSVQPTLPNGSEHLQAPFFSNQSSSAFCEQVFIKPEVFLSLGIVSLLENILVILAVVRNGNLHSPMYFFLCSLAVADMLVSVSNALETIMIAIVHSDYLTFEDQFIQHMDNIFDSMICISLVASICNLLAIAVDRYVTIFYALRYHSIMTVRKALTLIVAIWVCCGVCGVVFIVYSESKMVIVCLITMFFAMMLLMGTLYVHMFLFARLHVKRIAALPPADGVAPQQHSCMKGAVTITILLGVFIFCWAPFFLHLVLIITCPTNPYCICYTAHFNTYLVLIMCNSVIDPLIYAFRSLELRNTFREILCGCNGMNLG

With “Hydantoin(C(O)-(Gly-Arg))-c(Cys-Glu-His-D-Phe-Arg-Trp-Cys)-NH2 (peptide)”, in assay [1], the cAMP EC50 amounted to 335 nM.

“Hydantoin(C(O)-(Gly-Arg))-c(Cys-Glu-His-D-Phe-Arg-Trp-Cys)-NH2 (peptide; unit assumed)”: the cAMP EC50 in assay [2] was 0.0687 nM; in assay [3] it was 9.97 nM; in assay [4], 3.63 nM.

In the case of “Hydantoin(C(O)-(D-Ala-Nle))-c(Cys-D-Ala-His-D-Phe-Arg-Trp-Cys)-NH2 (peptide; unit assumed)”, the cAMP EC50 turned out to be 1.47 nM in assay [2] and 2.56 nM in assay [4].

Take “Hydantoin(C(O)-(Nle-Gly))-c(Cys-Glu-His-D-Phe-Arg-Trp-Cys)-NH2 (peptide; unit assumed)”: the cAMP EC50 turned out to be 0.177 nM in assay [2], 54.3 nM in assay [3] and 12.2 nM in assay [4].

In the case of “Ac-c(Cys-Glu-His-D-2-Nal-Arg-Bal-Ala-Cys)-Pro-Pro-Lys-Asp-NH2 (peptide; unit assumed)”, the cAMP EC50 in assay [1] was found to be 177 nM.

In assay [2], “Hydantoin(C(O)-(A6c-Nle))-c(Cys-D-Ala-His-D-Phe-Arg-Trp-Cys)-NH2 (peptide; unit assumed)” had a cAMP EC50 of 1.8 nM.

As for “Hydantoin(C(O)-(Arg-Gly))-c(Cys-Glu-His-D-Phe-Arg-Trp-Cys)-NH2 (peptide)”, the cAMP EC50 in assay [1] was found to be 4010 nM.

As to “Hydantoin(C(O)-(Nle-Gly))-c(Cys-D-Ala-His-D-Phe-Arg-Trp-Pen)-NH2 (peptide; unit assumed)”, the results for the cAMP EC50 in assay [2], in assay [3] and in assay [4] were 0.584 nM, 17 nM and 21.5 nM, respectively.

“c[Hydantoin(C(O)-(Ile-Cys))-D-Ala-His-D-Phe-Arg-Trp-Cys]-NH2 (peptide; unit assumed)”: the results for the cAMP EC50 in assay [2] and in assay [4] were 1.85 nM and 8.51 nM, respectively.

For the substance “Ac-CEH[d2Nal]R[2Nal]ACPPKD-NH2 (disulfide 1-8) [listing 1 of 2 here]”, the values for the cAMP Kb in assay [2] and in assay [4] were 12.2 and 140, respectively. This substance also came in with a cAMP EC50 in assay [3] of 33.6.

Turning to “Hydantoin(C(O)-(D-Ala-Gly))-c(Cys-D-Ala-His-D-Phe-Arg-Trp-Cys)-NH2 (peptide; unit assumed)”, the cAMP EC50 in assay [2] was 0.309 nM; in assay [3], 4.7 nM; in assay [4] it was 2.22 nM.

For “Ac-Nle-c(Asp-His-D-2-Nal-Arg-Trp-Lys)-β-Ala-β-Ala-Tyr-Gly-Arg-Lys-Lys-Arg-Arg-Gln-Arg-Arg-Arg-NH2 (peptide; unit assumed)”, in assay [1], the cAMP EC50 was found to be 0.839 nM.

In the case of “Ac-c(Cys-Glu-His-D-2-Nal-Arg-Trp-Ala-Cys)-Pro-Pro-Lys-Asp-β-Ala-Tyr-Gly-Arg-Lys-Lys-Arg-Arg-Gln-Arg-Arg-Arg-NH2 (peptide; in nM (unit assumed))”, the cAMP Kb in assay [2] was 1.66; in assay [4], 70. Moreover, the cAMP EC50 in assay [3] is 6.3.

“Hydantoin(C(O)-(Nle-Gly))-c(Cys-Glu-His-D-Phe-Arg-Trp-Cys)-NH2 (peptide)” came in with a cAMP EC50 in assay [1] above 10000 nM.

Turning to “Nle-c(Asp-His-D-2-Nal-Arg-Trp-Lys)-β-Ala-Tyr-Gly-Arg-Lys-Lys-Arg-Arg-Gln-Arg-Arg-Arg-NH2 (peptide; in nM (unit assumed))”, the cAMP Kb in assay [2] is 18.5; in assay [4], 207.

Consider “Ac-c(Cys-Glu-His-D-2-Nal-Arg-Bal-Ala-Cys)-Pro-Pro-Lys-Asp-NH2 (peptide; in nM (unit assumed))”, for which the cAMP Kb worked out at 4.56 in assay [2] and 70.7 in assay [4]. Further, the cAMP EC50 in assay [3] is 690.

Take “Hydantoin(C(O)-(Gly-Gly))-c(Cys-Glu-His-D-Phe-Arg-Trp-Cys)-NH2 (peptide)”: in assay [1], the cAMP EC50 is above 10000 nM.

Consider “Ac-Nle-c(Asp-His-D-2-Nal-Arg-Trp-Lys)-β-Ala-β-Ala-Tyr-Gly-Arg-Lys-Lys-Arg-Arg-Gln-Arg-Arg-Arg-NH2 (peptide; in nM (unit assumed))”, for which the results for the cAMP Kb in assay [2] and in assay [4] were 7.94 and 16.2, respectively. The substance also came in with a cAMP EC50 in assay [3] of 1.39.

Consider “Ac-Tyr-Arg-c(Cys-D-Ala-His-D-Phe-Arg-Trp-Cys)-NH2 (peptide; unit assumed)”, for which the figures for the cAMP EC50 in assay [4] and in assay [1] were 2.39 nM and 1540 nM, respectively.

The substance “Ac-CEH[d2Nal]R[1Nal]ACPPKD-NH2 (disulfide 1-8)” came in with a cAMP EC50 in assay [1] of 104 nM.

For the substance “Hydantoin(C(O)-(Gly-D-Arg))-c(Cys-D-Ala-His-D-Phe-Arg-Trp-Cys)-NH2 (peptide; unit assumed)”, the cAMP EC50 in assay [2] came to 0.435 nM; in assay [3], 7.53 nM; in assay [4] it was 11.6 nM.

For “Ac-CEH[d2Nal]R[2Nal]ACPPKD-NH2 (disulfide 1-8) [listing 2 of 2 here]”, in assay [1], the cAMP EC50 turned out to be 66.9 nM.

Take “Hydantoin(C(O)-(Leu-Nle))-c(Cys-D-Ala-His-D-Phe-Arg-Trp-Cys)-NH2 (peptide; unit assumed)”: the cAMP EC50 in assay [2] is 1.83 nM; in assay [4] it was 9.68 nM.

For “Hydantoin(C(O)-(Nle-Gly))-c(Cys-D-Ala-His-D-Phe-Arg-Trp-Pen)-NH2 (peptide)”, the cAMP EC50 in assay [1] was 352 nM.

“Hydantoin(C(O)-(Ala-Gly))-c(Cys-D-Ala-His-D-Phe-Arg-Trp-Cys)-NH2 (peptide)” had a cAMP EC50 in assay [1] of 516 nM.

With “Hydantoin(C(O)-(Arg-Gly))-c(Cys-D-Ala-His-D-Phe-Arg-Trp-Cys)-NH2 (peptide)”, in assay [1], the cAMP EC50 stood at 3560 nM.

“Ac-Nle-c(Asp-His-D-2-Nal-Arg-Trp-β-Ala-Lys)-NH2 (peptide; unit assumed)” displayed a cAMP EC50 in assay [3] of 0.913 nM.

For the substance “Ac-c(Cys-Glu-His-D-2-Nal-Arg-Trp-Ala-Cys)-Pro-Pro-Lys-Asp-β-Ala-Tyr-Gly-Arg-Lys-Lys-Arg-Arg-Gln-Arg-Arg-Arg-NH2 (peptide; unit assumed)”, the cAMP EC50 in assay [1] was 38.2 nM.

As for “Hydantoin(C(O)-(Gly-Gly))-c(Cys-D-Ala-His-D-Phe-Arg-Trp-Cys)-NH2 (peptide)”, in assay [1], the cAMP EC50 is 201 nM.

With “Ac-Nle-c(Pen-D-Ala-His-D-Phe-Arg-Trp-Cys)-NH2 (peptide; unit assumed)”, the cAMP EC50 in assay [2] came to 0.531 nM; in assay [4], 1.89 nM.

As for “Ac-Arg-c(Cys-D-Ala-His-D-Phe-Arg-Trp-Cys)-NH2 (peptide; unit assumed)”, the cAMP EC50 in assay [1] worked out at 1630 nM.

With “Ac-Nle-c(Asp-His-D-2-Nal-Arg-Trp-Lys)-β-Ala-Tyr-Gly-Arg-Lys-Lys-Arg-Arg-Gln-Arg-Arg-Arg-NH2 (peptide; in nM (unit assumed))”, the cAMP Kb worked out at 4.07 in assay [2] and 220 in assay [4].

For “Hydantoin(C(O)-(Val-Nle))-c(Cys-D-Ala-His-D-Phe-Arg-Trp-Cys)-NH2 (peptide; unit assumed)”, the values for the cAMP EC50 in assay [2] and in assay [4] were 0.977 nM and 4.61 nM, respectively.

“c[Hydantoin(C(O)-(Glu-D-Ala))-His-D-Phe-Arg-Trp-Lys]-NH2 (peptide; unit assumed)”: the cAMP EC50 in assay [2] worked out at 3.62 nM; in assay [4] it was 22.3 nM.

For the substance “Hydantoin(C(O)-(Gly-Arg))-c(Cys-D-Ala-His-D-Phe-Arg-Trp-Cys)-NH2 (peptide)”, in assay [1], the cAMP EC50 came to 3610 nM.

Turning to “Ac-D-Arg-c(Cys-D-Ala-His-D-Phe-Arg-Trp-Cys)-NH2 (peptide; unit assumed)”, the cAMP EC50 in assay [1] was determined as 1020 nM.

“Ac-Nle-c(Asp-His-D-2-Nal-Arg-Trp-Ala-Lys)-NH2 (peptide; unit assumed)” yielded a cAMP EC50 in assay [3] of 0.619 nM.

In turn, “Hydantoin(C(O)-(Gly-D-Arg))-c(Cys-D-Ala-His-D-Phe-Arg-Trp-Cys)-NH2 (peptide)” yielded a cAMP EC50 in assay [1] of 9840 nM.
